Columns and labels:
Assay in all cases: Kinase Profiling Assay
Assay type in all cases: biochemical
Conditions in all cases: 100 μM peptide
MELK(h) = MELK(h) (Homo sapiens, UniProt Q14680)
Description: (§1) Every kinase activity measurement was conducted in duplicate.
(§2) In addition to determining the IC50 of the compound, the specificity of MK2 inhibitory peptides was assessed by examining activities of all 266 human kinases available for testing in the Millipore kinase profiling service (Table 1).

PDGFRα(V561D)(h) = PDGFRα(V561D)(h) (Homo sapiens, UniProt P16234, V561D)
Description: as §1, §2

Pim-1(h) = Pim-1(h) (Homo sapiens, UniProt P11309)
Description: as §1, §2

Ros(h) = target: T1, Ros(h) (Homo sapiens, UniProt P08922)
T1 construct: purchased Millipore (IC50 Profiler Express service)
Description: as §1, §2

cKit(V654A)(h) = cKit(V654A)(h) (Homo sapiens, UniProt P10721, V654A)
Description: as §1, §2

SAPK2b(h) = SAPK2b(h) (Homo sapiens, UniProt Q15759)
Description: as §1, §2

MST1(h) = target: T2, MST1(h) (Homo sapiens, UniProt Q13043)
T2 sequence (Q13043 1-487): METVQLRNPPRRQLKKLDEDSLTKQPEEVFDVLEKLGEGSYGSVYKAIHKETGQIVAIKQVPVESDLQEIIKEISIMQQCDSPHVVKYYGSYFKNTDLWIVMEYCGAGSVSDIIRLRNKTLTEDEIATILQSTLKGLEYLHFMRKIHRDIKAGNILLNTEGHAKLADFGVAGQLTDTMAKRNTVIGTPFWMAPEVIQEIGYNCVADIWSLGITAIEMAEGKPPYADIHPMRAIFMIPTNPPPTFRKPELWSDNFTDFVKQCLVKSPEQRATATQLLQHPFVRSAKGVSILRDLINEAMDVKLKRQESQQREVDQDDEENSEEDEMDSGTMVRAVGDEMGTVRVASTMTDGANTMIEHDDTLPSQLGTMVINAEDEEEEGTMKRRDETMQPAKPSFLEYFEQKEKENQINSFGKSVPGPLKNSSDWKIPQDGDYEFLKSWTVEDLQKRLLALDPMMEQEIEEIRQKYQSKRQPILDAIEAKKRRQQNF
Description: as §1, §2

IRAK1(h) = target: T3, IRAK1(h) (Homo sapiens, UniProt P51617)
T3 construct: purchased Millipore
Description: as §1, §2

EphA2(h) = EphA2(h) (Homo sapiens, UniProt P29317)
Description: as §1, §2

PRK2(h) = target: T4, PRK2(h) (Homo sapiens, UniProt Q16513)
T4 construct: purchased Millipore (IC50 Profiler Express service)
Description: as §1, §2

CaMKIIγ(h) = CaMKIIγ(h) (Homo sapiens, UniProt Q13555)
Description: as §1, §2

Plk3(h) = target: T5, Plk3(h) (Homo sapiens, UniProt Q9H4B4)
T5 construct: purchased Millipore (IC50 Profiler Express service)
Description: as §1, §2

GRK6(h) = target: T6, GRK6(h) (Homo sapiens, UniProt P43250)
T6 construct: purchased Millipore
Description: as §1, §2

FGFR4(h) = FGFR4(h) (Homo sapiens, UniProt P22455)
Description: as §1, §2

PKCμ(h) = target: T7, PKCμ(h) (Homo sapiens, UniProt Q15139)
T7 construct: purchased Millipore (IC50 Profiler Express service)
T7 sequence (Q15139 1-912): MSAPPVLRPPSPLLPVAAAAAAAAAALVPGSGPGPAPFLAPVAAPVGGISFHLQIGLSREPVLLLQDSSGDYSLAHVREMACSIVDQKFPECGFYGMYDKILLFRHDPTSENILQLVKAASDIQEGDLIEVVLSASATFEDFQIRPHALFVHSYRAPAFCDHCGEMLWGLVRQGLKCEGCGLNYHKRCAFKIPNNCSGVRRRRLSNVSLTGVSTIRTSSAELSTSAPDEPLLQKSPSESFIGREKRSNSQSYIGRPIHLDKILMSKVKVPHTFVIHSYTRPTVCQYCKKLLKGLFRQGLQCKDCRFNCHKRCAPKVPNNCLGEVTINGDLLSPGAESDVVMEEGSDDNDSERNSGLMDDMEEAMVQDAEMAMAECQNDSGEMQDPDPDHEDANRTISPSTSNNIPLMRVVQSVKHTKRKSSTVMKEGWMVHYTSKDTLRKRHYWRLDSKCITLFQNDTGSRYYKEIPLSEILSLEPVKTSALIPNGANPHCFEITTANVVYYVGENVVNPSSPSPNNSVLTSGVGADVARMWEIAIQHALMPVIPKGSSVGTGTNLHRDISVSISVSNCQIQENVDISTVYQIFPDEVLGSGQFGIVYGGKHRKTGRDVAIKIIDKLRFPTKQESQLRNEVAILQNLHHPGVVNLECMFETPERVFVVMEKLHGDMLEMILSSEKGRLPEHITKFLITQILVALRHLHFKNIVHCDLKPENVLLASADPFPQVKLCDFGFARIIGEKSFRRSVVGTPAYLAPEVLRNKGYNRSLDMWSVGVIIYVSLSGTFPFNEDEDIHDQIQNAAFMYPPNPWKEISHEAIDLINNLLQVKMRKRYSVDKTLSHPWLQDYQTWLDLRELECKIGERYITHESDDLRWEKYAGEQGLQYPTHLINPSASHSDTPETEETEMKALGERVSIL
Description: as §1, §2

MST3(h) = MST3(h) (Homo sapiens, UniProt Q9Y6E0)
Description: as §1, §2

PKBα(h) = PKBα(h) (Homo sapiens, UniProt P31749)
Description: as §1, §2

CDK3/cyclinE(h) = CDK3/cyclinE(h) (Homo sapiens, UniProt Q00526)
Description: as §1, §2

SAPK2b(h), sequence (Q15759 whole entry): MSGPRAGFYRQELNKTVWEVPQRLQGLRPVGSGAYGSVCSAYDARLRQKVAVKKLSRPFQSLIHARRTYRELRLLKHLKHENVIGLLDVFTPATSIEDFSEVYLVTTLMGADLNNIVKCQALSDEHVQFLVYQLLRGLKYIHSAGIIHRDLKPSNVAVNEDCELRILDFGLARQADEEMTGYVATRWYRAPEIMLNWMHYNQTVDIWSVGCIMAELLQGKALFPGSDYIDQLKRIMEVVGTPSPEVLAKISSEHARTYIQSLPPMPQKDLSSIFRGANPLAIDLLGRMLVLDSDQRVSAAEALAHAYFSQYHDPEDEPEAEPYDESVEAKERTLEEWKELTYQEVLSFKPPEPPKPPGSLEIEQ
T1 sequence (P08922 28-2347): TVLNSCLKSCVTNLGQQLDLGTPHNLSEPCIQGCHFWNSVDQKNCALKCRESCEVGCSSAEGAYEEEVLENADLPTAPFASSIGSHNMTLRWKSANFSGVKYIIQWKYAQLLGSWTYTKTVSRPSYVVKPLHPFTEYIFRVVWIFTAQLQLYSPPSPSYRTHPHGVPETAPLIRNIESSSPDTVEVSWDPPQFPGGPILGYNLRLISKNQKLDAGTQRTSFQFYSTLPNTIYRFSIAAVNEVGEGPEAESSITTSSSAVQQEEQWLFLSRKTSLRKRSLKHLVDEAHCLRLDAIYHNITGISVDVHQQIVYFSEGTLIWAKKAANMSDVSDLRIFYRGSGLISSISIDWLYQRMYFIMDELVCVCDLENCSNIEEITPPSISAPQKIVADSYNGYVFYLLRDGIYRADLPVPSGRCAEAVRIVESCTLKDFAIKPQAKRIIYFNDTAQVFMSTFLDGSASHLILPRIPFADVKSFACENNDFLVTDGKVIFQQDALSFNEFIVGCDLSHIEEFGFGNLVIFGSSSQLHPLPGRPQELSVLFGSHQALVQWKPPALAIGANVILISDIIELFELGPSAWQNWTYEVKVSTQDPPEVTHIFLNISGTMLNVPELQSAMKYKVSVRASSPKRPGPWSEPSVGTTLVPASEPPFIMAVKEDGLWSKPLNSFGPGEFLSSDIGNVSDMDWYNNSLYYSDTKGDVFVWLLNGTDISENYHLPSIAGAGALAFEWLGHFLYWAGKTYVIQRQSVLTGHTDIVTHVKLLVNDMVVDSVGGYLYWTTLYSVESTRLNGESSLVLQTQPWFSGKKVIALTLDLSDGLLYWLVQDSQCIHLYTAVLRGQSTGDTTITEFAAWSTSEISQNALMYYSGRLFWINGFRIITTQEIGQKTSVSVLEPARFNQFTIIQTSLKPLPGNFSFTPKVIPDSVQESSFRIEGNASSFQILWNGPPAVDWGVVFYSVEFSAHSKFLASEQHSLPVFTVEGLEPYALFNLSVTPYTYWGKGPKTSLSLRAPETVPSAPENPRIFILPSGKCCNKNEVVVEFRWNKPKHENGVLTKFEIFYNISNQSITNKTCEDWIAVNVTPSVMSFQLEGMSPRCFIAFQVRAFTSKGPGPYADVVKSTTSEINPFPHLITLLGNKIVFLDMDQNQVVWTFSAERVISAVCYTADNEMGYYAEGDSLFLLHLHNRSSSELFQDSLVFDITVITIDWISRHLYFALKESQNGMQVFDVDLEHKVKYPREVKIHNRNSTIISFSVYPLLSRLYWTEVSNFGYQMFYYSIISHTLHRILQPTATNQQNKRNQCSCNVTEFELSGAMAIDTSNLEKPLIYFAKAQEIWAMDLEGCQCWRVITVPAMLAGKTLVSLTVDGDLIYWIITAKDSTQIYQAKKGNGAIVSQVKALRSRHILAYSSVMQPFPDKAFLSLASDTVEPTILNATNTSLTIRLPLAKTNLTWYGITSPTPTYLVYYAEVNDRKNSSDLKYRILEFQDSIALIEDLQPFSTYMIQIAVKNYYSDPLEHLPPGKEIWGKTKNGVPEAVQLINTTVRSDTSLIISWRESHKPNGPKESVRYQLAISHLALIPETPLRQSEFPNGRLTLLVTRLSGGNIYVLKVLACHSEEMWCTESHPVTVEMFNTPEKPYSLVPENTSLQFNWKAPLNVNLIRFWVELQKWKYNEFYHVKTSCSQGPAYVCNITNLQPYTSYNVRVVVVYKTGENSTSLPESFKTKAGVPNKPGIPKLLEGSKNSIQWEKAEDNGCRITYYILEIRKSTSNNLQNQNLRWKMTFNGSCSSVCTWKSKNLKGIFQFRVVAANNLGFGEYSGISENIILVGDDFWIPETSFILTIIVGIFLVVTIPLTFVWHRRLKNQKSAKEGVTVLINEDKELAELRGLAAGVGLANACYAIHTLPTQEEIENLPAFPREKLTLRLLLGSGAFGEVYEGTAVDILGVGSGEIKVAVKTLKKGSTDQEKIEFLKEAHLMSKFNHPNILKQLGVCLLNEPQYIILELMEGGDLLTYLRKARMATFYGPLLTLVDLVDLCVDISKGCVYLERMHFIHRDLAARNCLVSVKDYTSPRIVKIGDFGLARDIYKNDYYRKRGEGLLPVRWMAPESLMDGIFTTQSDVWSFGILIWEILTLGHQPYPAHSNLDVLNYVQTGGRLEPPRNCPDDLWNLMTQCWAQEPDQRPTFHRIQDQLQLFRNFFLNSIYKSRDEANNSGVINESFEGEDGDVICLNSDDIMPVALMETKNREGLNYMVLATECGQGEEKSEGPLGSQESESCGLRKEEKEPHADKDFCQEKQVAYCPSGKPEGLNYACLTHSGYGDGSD
T3 sequence (P51617 whole entry): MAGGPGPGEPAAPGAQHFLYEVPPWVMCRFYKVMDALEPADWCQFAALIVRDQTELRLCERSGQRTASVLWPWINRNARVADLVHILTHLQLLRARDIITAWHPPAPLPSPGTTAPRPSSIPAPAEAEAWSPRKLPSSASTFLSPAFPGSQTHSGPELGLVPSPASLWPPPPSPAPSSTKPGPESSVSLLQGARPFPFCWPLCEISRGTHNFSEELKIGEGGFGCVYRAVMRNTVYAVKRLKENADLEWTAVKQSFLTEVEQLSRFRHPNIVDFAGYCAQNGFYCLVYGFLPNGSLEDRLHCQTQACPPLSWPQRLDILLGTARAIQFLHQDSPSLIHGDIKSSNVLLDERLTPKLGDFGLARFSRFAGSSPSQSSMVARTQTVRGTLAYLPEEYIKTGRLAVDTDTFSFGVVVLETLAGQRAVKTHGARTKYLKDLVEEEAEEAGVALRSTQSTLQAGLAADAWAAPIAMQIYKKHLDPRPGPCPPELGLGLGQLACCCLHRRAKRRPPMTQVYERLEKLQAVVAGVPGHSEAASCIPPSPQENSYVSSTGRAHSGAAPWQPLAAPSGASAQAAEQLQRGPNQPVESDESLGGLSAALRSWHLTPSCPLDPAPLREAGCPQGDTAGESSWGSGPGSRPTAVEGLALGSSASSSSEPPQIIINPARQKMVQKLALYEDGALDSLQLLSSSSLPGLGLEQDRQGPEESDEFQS
MELK(h), sequence (Q14680 whole entry): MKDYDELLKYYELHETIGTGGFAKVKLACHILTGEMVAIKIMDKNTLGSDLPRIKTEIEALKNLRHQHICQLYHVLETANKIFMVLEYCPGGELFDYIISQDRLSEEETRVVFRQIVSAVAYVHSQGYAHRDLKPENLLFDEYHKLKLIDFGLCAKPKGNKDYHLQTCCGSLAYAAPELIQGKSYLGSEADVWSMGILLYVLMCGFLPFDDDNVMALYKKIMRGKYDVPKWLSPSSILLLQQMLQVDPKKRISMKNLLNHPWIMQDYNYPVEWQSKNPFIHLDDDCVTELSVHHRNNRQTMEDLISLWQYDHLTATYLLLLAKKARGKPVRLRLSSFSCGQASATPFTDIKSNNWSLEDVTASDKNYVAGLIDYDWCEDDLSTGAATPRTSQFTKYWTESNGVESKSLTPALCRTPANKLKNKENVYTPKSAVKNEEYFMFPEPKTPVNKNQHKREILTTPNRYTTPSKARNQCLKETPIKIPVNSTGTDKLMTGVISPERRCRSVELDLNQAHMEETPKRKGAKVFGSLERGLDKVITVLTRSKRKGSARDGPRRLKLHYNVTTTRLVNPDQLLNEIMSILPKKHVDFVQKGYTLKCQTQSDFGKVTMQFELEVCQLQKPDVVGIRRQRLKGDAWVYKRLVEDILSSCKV
T5 sequence (Q9H4B4 whole entry): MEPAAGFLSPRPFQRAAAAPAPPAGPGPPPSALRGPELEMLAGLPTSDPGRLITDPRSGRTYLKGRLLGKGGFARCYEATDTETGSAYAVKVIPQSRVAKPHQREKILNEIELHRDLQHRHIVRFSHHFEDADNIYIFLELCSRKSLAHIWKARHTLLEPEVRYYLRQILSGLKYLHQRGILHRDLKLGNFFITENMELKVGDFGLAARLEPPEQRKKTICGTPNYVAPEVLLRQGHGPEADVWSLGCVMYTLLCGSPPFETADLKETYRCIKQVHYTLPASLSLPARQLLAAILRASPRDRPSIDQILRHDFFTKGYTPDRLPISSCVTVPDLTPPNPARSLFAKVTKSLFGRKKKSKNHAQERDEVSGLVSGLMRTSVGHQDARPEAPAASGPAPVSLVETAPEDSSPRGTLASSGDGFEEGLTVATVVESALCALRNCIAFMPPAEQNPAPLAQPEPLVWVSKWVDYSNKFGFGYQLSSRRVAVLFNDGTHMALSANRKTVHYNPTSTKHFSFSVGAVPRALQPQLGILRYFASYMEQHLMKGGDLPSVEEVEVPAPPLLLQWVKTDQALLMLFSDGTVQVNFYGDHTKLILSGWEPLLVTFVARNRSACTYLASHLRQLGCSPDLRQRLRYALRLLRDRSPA
Pim-1(h), sequence (P11309 whole entry): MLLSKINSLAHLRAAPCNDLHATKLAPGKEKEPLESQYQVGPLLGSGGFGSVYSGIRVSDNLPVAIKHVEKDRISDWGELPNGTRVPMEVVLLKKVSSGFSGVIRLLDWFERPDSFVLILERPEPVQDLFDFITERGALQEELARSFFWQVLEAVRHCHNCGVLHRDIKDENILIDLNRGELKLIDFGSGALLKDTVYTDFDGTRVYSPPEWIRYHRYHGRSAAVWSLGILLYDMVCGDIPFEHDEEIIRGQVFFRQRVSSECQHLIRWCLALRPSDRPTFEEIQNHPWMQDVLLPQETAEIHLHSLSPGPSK

Sequence	MELK(h) % activity (MELK(h)) [%]	PDGFRα(V561D)(h) % activity (PDGFRα(V561D)(h)) [%]	Pim-1(h) % activity (Pim-1(h)) [%]	Ros(h) % activity (Ros(h)) [%]	cKit(V654A)(h) % activity (cKit(V654A)(h)) [%]	SAPK2b(h) % activity (SAPK2b(h)) [%]	MST1(h) % activity (MST1(h)) [%]	IRAK1(h) % activity (IRAK1(h)) [%]	EphA2(h) % activity (EphA2(h)) [%]	PRK2(h) % activity (PRK2(h)) [%]	CaMKIIγ(h) % activity (CaMKIIγ(h)) [%]	Plk3(h) % activity (Plk3(h)) [%]	GRK6(h) % activity (GRK6(h)) [%]	FGFR4(h) % activity (FGFR4(h)) [%]	PKCμ(h) % activity (PKCμ(h)) [%]	MST3(h) % activity (MST3(h)) [%]	PKBα(h) % activity (PKBα(h)) [%]	CDK3/cyclinE(h) % activity (CDK3/cyclinE(h)) [%]
FAKLAARLYRKALARQLGVAA [MMI-0300]	16	82	8	95	134	81	14	95	31	33	5	127	147	28	22	45	57	94
KAFAKLAARLYRKALARQLGVAA [MMI-0400]	17	100	7	99	150	82	6	93	17	27	3	129	141	19	14	36	67	92
YARAAARQARAKALNRQLGVA (Mammalian) [MMI-0200]	59	–	18	86	–	95	72	101	95	74	94	–	132	75	73	95	110	–
HRRIKAWLKKIKALARQLGVAA (Mammalian) [MMI-0500]	0	146	0	150	223	42	3	5	–	7	3	122	174	3	10	4	30	8

Source: patent US10562947B2, “Compositions and methods for preventing or treating diseases, conditions or processes characterized by aberrant fibroblast proliferation and extracellular matrix deposition” (MOERAE MATRIX, INC., priority 2011, dated 2020)
